Tests used:
[1] = target: full length cynomolgus monkey DLL4 (cynomolgus monkey); test: FMAT, hybridoma supernatant, 293T cells with cynomolgus DLL4
[2] = target: full length cynomolgus monkey DLL4 (cynomolgus monkey); test: FACS competition vs Notch1/Fc, HEK293 cells with cynomolgus DLL4
[3] = target: full length cynomolgus monkey DLL4 (cynomolgus monkey); test: FACS titration, HEK293 cells with cynomolgus DLL4
[4] = target: DLL4 extracellular domain (R&D systems, catalog #1506-D4/CF) (UniProt Q9NR61); test: cell-based or functional assay
Sequence of DLL4 extracellular domain (R&D systems, catalog #1506-D4/CF) (Q9NR61 27-529 limits assumed): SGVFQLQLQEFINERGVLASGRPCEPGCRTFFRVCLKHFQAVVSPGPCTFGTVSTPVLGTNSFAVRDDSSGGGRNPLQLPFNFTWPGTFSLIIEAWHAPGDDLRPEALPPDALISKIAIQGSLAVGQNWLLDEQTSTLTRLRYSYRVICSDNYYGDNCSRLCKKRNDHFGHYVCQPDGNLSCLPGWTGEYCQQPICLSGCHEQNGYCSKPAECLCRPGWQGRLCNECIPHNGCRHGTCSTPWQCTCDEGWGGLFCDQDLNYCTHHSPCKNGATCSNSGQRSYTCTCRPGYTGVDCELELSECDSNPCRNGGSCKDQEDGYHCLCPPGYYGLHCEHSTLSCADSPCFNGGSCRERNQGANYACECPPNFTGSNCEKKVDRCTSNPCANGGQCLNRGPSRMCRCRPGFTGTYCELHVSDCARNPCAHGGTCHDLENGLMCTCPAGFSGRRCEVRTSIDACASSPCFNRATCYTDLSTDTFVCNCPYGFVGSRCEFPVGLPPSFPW

Binder | Count [1] | FL1 [1] | FL1 x count [1] | other results
4B3 (antibody, IgG4, V domains shown) VH: QVQLVQSGAEVRKSGASVKVSCKASGYSFTTYDINWVRQATGQGLEWMGWMNPNSGYTDYAQKFQGRVTLTRNMSIDTAYMELSSLRSEDTAVYYCARAYYYDSSAYYLFDYWGQGTLVTVSS VL: DIQMTQSPSSLSASVGDRVTITCRASQGISNYLAWFQQKPGKAPKSLIYAASSLQSGVPSKFSGSGSGTDFTLTISSLQPEDFATYFCQQYISYPLTFGGGTKVEI | 97 | 12600 | 1.22e+06 | –
2H10 (antibody, IgG4, V domains shown) VH: QVQLVESGGGVVQPGRSLRLSCAASGFTFSRHGMHWVRQAPGKGLEWVAVVWFDGSNIYYADSVKGRFTISRDNSKNTLYLQMNSLRAEDTAMYYCARDSRIAAADYWGQGTLVTVSS VL: SYELTQPPSVSVSPGQTVSITCSGDKLGDKYVCWYQQKPGQSPVLVIYQESKRPSGIPERFSGSSSGNTATLTISGTQAMDEADYYCQTWDSSLVVFGGGTKLTVL | 103 | 13100 | 1.35e+06 | –
17F3 (antibody, IgG2, V domains shown) VH: QVQLVQSGAEVKKPGASVKVSCKASGYTFTNYGISWVRQAPGQGLEWMGWINAYNGNTNYAQNLQGRVTMTTDTSTNTAYMELRSLRSDDTAVYYCARVAPAAFFDYWDQGTLVTVSS VL: SYELTQPPSVSVSPGQTASITCSGDKLGDKYVCWYQQKPGQSPVLVIYQDNKRPSGIPERFSGSNSGNTATLIISGTQAMDEADYYCQAWDSSTVFGGGTKLTVL | 120 | 10700 | 1.29e+06 | –
4B4 (antibody, IgG4, V domains shown) VH: QVLLIQSGAEVKKPGASVQVSCKASGYTFTNYGVIWVRQAPGQGLEYMGWISAYNGNTNYAQKLQDRVTMTSDTSTTTAYMELRSLRSDDTAVYYCARELGSSFDYWGQGTLVTVSS VL: SYELTQPPSVSVSPGQTARITCSGDALPKKYAYWYQQKSGQAPVLVIYEDIKRPSGIPERFSGSSSGTMATLTISGAQVEDEADYYCFSTDNSGDHSVFGGGTKLTVL | 117 | 12300 | 1.04e+09 | –
4B4 IgG1 (antibody, V domains shown) VH: QVLLIQSGAEVKKPGASVQVSCKASGYTFTNYGVIWVRQAPGQGLEYMGWISAYNGNTNYAQKLQDRVTMTSDTSTTTAYMELRSLRSDDTAVYYCARELGSSFDYWGQGTLVTVSS VL: SYELTQPPSVSVSPGQTARITCSGDALPKKYAYWYQQKSGQAPVLVIYEDIKRPSGIPERFSGSSSGTMATLTISGAQVEDEADYYCFSTDNSGDHSVFGGGTKLTVL | – | – | – | IC50 [2]: 0.5 nM; Kd [3]: 0.081 nM
9G8 (antibody, IgG4, V domains shown) VH: QLQLQESGPGLVKPSETLSLSCTVSGGSISSSSSYWGLIRQPPGKGLEWIGSIYYSGSTYYSPSLKSRVSISVDTSKNQFSLKLSSVTAADTAVYFCARQGYGGHPDVFDIWGQGTMVTVSS VL: SSELTQSPSVSVSPGQTARITCSGDKLGDVYVCWYQQKTGQSPVLVIYEDTKRPSGIPERFSGSNSGNTATLTISGTQVMDEADYYCQAWDSTTAVIFGGGTKLTVL | 120 | 11700 | 1.41e+06 | –
12A1 (antibody, IgG4, V domains shown) VH: QVQLVQSGAEVKRPGASVKVSCKASGYTFTSYGITWVRQAPGQGLEYMGWISTYNGNTDYAQKFQGRVTMTADISTSTAYMELRSLRSDDTAVYYCARERGSYFDYWGQGTLVTVSS VL: SYELTQPPSVSVSPGQTARITCSGDTLPKKYAYWYQQKSGQAPVLVIYEDIKRPSGIPERFSGSSSGTMATLTISGAQVEDEADYYCFSTDSGGNHKFGGGTKLTVL | 106 | 12900 | 1.37e+06 | –
3A7 (antibody, IgG4, V domains shown) VH: EVQVVESGGGLVQPGGSLRLSCEASGFTFSNYWMIWVRQAPGKGLEWVASIKEDGSEKYYVDSVKGRFTISRDNAKSSLYLQMNSLRAEDTAVYYCVRDWELRGHYYYHGMDVWGQGTTVTVSS VL: DIQMTQSPSSLSASVGDRVTITCRASLDIRNDLGWFLQKPGKAPKRLIYAASSLQSGVPSRFSGSGSGTEFTLTINSLQPEDFATYYCLQHRNYPFTFGPGTKVDFK | 121 | 9960 | 1.2e+06 | –
1D4 (antibody, IgG4, V domains shown) VH: QLQLQESGPGLVKPSETLSLTCTVSGGSISSSSYYWGWIRQPPGKGLEWIGSFYYSRSTYYNPSLKSRVTISVDTSKNQFSLKLSSVTAADTAVHYCARGSIAVPDAFDIWGQGTMVTVSS VL: SYELTQPPSVSVSPGQTASITCSGDKLGDKFACWYQQKPGHSPVLVVYQDNKRPSGIPERFSGSNSGNSATLTISGTQAMDEADYYCQAWDSNTAVFGGGTKLTVL | 103 | 11700 | 1.21e+06 | –
20G8 (antibody, IgG4, V domains shown) VH: QVQLVQSGAEVKKPGASVKVSCKASGYTFTSYGISWVRQAPGQGLEWMGWISVYNGNTNYAQKLQGRVTMTTDTSTSTAYMEVRSLRSDDTAVYYCARDRVPRIPRTTEAFDIWGRGTMVTVCS VL: QSVLTQPPSASGTPGQRVTISCSGSSSNIGSYYVYWYQQLPGTAPKLLIYRDNQRPSGVPDRFSGSKSGTSASLAIRGLRSDDEADYYCAAWDDSLSGHWVFGGGTKLTVL | 128 | 11200 | 1.44e+06 | % inhibition 1 µg/ml, AVERAGE (HUVEC proliferation on coated DLL4) [4]: 85%; % inhibition 1 µg/ml, N = 1 (HUVEC proliferation on coated DLL4) [4]: 94%; % inhibition 1 µg/ml, N = 2 (HUVEC proliferation on coated DLL4) [4]: 75%; % inhibition 10 µg/ml, AVERAGE (HUVEC proliferation on coated DLL4) [4]: 98%; % inhibition 10 µg/ml, N = 1 (HUVEC proliferation on coated DLL4) [4]: 103%; % inhibition 10 µg/ml, N = 2 (HUVEC proliferation on coated DLL4) [4]: 93%

Source: patent US20100196385A1
